# According to paper PMC7311396, “Ultra-large chemical libraries for the discovery of high-affinity peptide binders” (Nature Communications, 2020):
# B1: 14-3-3γ (natural protein)
# chain: MVDREQLVQKARLAEQAERYDDMAAAMKNVTELNEPLSNEERNLLSVAYKNVVGARRSSWRVISSIEQKTSADGNEKKIEMVRAYREKIEKELEAVCQDVLSLLDNYLIKNCSETQYESKVFYLKMKGDYYRYLAEVATGEKRATVVESSEKAYSEAHEISKEHMQPTHPIRLGLALNYSVFYYEIQNAPEQACHLAKTAFDDAIAELDTLNEDSYKDSTLIMQLLRDNLTLWTSDQQDDDGGEGNN
# Molecular target: FITC-labeled NB.1
# Test: fluorescence polarisation; direct fluorescence anisotropy: 1:1 dilution series of 14-3-3γ (starting at 100 μM) into FITC-labeled peptide (10 nM or 50 nM); 10 mM HEPES pH 7.4, 150 mM NaCl, 0.1% Tween 20, 0.1% BSA; ambient temperature
binder,measurement,value
B1,fold weaker binding than the 14-3-3γ-binding peptides,10000 fold
